± gives the half width of the 95% confidence interval.
Legend:
[1] = folding stability dG unfold (combined trypsin and chymotrypsin); higher = more stable
Procedure, shortened: (§1)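 Only designs with AlphaFold2 dimer inter-PAE above 15 were retained; each was a mini-protein under 80 residues with no cysteine, in a PA-tagged cDNA display construct. After digestion with trypsin and chymotrypsin and sequencing, K50 was inferred by Bayesian fitting of counts, and unfolding free energy was derived per protease or combined against a sequence-predicted unfolded-state K50 and a shared folded-state K50.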

[2] = folding stability dG unfold from chymotrypsin proteolysis; higher = more stable
Procedure, shortened: as §1

[3] = folding stability dG unfold from trypsin proteolysis; higher = more stable
Procedure, shortened: as §1

Sequence	folding stability dG unfold [1]	folding stability dG unfold [2]	folding stability dG unfold [3]
SAGGSVTTETDEYFYPDNLFTVAKTTLYVGSGPVEATAVSYPTFTLVNVHYPDGSVDTFLFTLTDDSSAGGS [r16_108_TrMRF]	3.08 ± 0.13 kcal/mol	3.56 ± 0.06 kcal/mol	2.38 ± 0.11 kcal/mol
SAGGMLVEARPVLRLTLVSPDGTPREFELPFTVPFSPENPEALLEEAEAIARAIAEATGAEAEIEIEPSAGG [r13_853_TrMRF]	0.319 ± 0.15 kcal/mol	0.017 ± 0.23 kcal/mol	0.506 ± 0.064 kcal/mol
SAGGSAGGSAGGMVVKIKVDGKTITLSAEELKKNKDLLKELEKKGYKIVSIEVFEPEEESAGGSAGGSAGGS [r10_396_TrROS_Hall]	1.67 ± 0.08 kcal/mol	1.71 ± 0.027 kcal/mol	1.57 ± 0.056 kcal/mol
SAGGSAGGSAGGKPTITVTYDKENNTVTITFPDGSKIEITVPENATEEEVKKLVEELAKSAGGSAGGSAGGS [r10_33_TrROS_Hall]	2.97 ± 0.22 kcal/mol	3.13 ± 0.11 kcal/mol	2.62 ± 0.18 kcal/mol
SAGGEEEAVEKPFYQLPEKKPLKTVPMSREEALALARENPDLGILYAEEDGKLWKVDAETGTIEPLGSAGGS [r16_214_JUSTAS]	1.46 ± 0.14 kcal/mol	1.58 ± 0.11 kcal/mol	1.23 ± 0.043 kcal/mol
SAGGSAGGFKIPPGKTIMIQYPDGWMWRIKVKDGNTHMFKSPEEIEKLLNKPGFEIEIEWFPLDSAGGSAGG [r6_433_TrROS]	1.67 ± 0.19 kcal/mol	1.74 ± 0.24 kcal/mol	1.63 ± 0.083 kcal/mol
SAGMTFTTVTVERPLGSPEGKPVSLEEVEEYAKKVAEELEPNGFPVENITIELLPDGTAVITMTIKKPLSAG [r14_470_JUSTAS]	1.94 ± 0.056 kcal/mol	1.86 ± 0.044 kcal/mol	2.03 ± 0.042 kcal/mol
SAGGSAGGSAGKKIKYRITIYNKKTGKTIEIEIEMSEDEIKKIAEELAKKYNVKIKIEPVSAGGSAGGSAGG [r11_515_TrROS_Hall]	4.56 ± 0.18 kcal/mol	4.79 ± 0.13 kcal/mol	3.71 ± 0.13 kcal/mol
SAETVVTPRRSTLPDGTRLEEDVVTLPDGTTVTPVRVVRRDPETGREVVEFWVRTTDPATGTTTTTPLPSAG [r14_324_JUSTAS]	1.23 ± 0.051 kcal/mol	1.72 ± 0.059 kcal/mol	-0.198 ± 0.12 kcal/mol
SAGGIDLSKLPKNSIVVITKVKVYPTKVGEPDGEGEGYVEVELRVFRNIPPTGKILSSPLPVKFKIASAGGS [r8_486_TrMRF]	1.17 ± 0.12 kcal/mol	0.987 ± 0.25 kcal/mol	1.19 ± 0.04 kcal/mol
SAGGSAKIEIPIMIPMPPGQEFDLKIRIPNLWKIKIERIYVSPDPGWIMFRIEIEPVAPPNDPEQMSAGGSA [r15_994_TrROS]	3.34 ± 0.21 kcal/mol	3.64 ± 0.071 kcal/mol	2.92 ± 0.17 kcal/mol
SAGGSAGGSPYTIMYPIPGDTVEEVKDIAKEIMEHFPNFKITVSVEPPKDGQYWVTIELEMPDSAGGSAGGS [r12_425_TrROS]	2.09 ± 0.15 kcal/mol	2.23 ± 0.049 kcal/mol	1.87 ± 0.11 kcal/mol
SAGGSAGGSAGGGLEEIKEAIKKLPENVKEITIKLKDGSTIKIRVEKDKDGKYKITIEPSAGGSAGGSAGGS [r10_1017_TrROS_Hall]	2.5 ± 0.22 kcal/mol	2.68 ± 0.15 kcal/mol	2.41 ± 0.3 kcal/mol
SAPDWVKIKFPFRFYNPDPDGKPMAKMKLEIEVYPSPGAYMAKIEDPNFGMKITFPFDSPEEVKDFLQNSAG [r14_508_TrROS]	1.23 ± 0.32 kcal/mol	1.14 ± 0.25 kcal/mol	1.25 ± 0.083 kcal/mol
GLVDEDGKEVFPEVPLVIELDVPENLPDGKKLSPEEVEKLVKGLAEKLKKEYNVKKVEAERKGNKVLILVGS [r1_369_TrMRF]	0.706 ± 0.1 kcal/mol	0.519 ± 0.15 kcal/mol	0.688 ± 0.058 kcal/mol
SAGGSAGGSAGGWIRNKDGKPVKLEIYPFPVEMWMYRKKPDGGWEPHPMRMPFTFIRITPSAGGSAGGSAGG [r7_90_TrROS]	1.65 ± 0.11 kcal/mol	1.55 ± 0.11 kcal/mol	1.59 ± 0.049 kcal/mol
SAGGSADTITIFFPGMPPEFAKEILEAILYEQGWKPKSVSTERHPEKGMHTIEVRFPNGRKITIMFSAGGSA [r15_958_TrROS]	2.75 ± 0.052 kcal/mol	3.1 ± 0.016 kcal/mol	2.18 ± 0.06 kcal/mol
SAGGGVTITASPDGTVTITIGGKPITVPVHPGATLEFRVEPTPDGRPAVTITWTSPDGTPYTFTFTGSAGGS [r16_231_TrMRF]	4.89 ± 0.053 kcal/mol	5.015 ± 0.036 kcal/mol	4.23 ± 0.14 kcal/mol
SAMTYTLTPAGGKTITVTLNPDGSITITSTSTSSSLPLSPDAKITSVTFDAATGTITITLNSKPITIPASAG [r14_276_JUSTAS]	1.92 ± 0.15 kcal/mol	1.74 ± 0.17 kcal/mol	1.9 ± 0.057 kcal/mol
SAGGSAGGSAGGVEIPPDKPVAIEVTSPEGPTATLIFDPKDGTVTVIEGGKPVEVPAEDFSAGGSAGGSAGG [r7_937_TrMRF]	-0.377 ± 0.29 kcal/mol	-1.06 ± 0.53 kcal/mol	0.0909 ± 0.059 kcal/mol
SAGGSAGGSAGLELTVGDVPVDVYVDPDTERALAYFPLFNRVAIVDLPTGKVYVVPLDDILSAGGSAGGSAG [r3_137_TrMRF]	1.15 ± 0.076 kcal/mol	1.11 ± 0.14 kcal/mol	1.25 ± 0.04 kcal/mol

Sequence	folding stability dG unfold [1]	folding stability dG unfold [2]	folding stability dG unfold [3]
SAGGSAGGMVVGILTITDPATGSSETLVIPMPSEEEAVERAKELAEELEAKKGKIVKVEIRPRPSAGGSAGG [r6_787_JUSTAS]	1.32 ± 0.19 kcal/mol	1.5 ± 0.088 kcal/mol	1.39 ± 0.064 kcal/mol
SAYRIEIEIPSPKLAKKLEALLPPNYRIDNVRRNKNDNQVKITVEYDPGMPPSRMRRIHKEIKELIKELSAG [r14_306_TrROS]	1.86 ± 0.18 kcal/mol	2.24 ± 0.077 kcal/mol	1.24 ± 0.088 kcal/mol
SAELKISKIDVSSLPDGSKKVTVNFSAPNFKVTITLDKSGNVSVEVSPEARKLPPEFFNLILNLAKELGSAG [r14_555_TrMRF]	3.96 ± 0.1 kcal/mol	4.14 ± 0.1 kcal/mol	3.64 ± 0.15 kcal/mol
SMPAEMSPEEVREAVRALVEEALAANPGEPVTVPIEEIRAALPGYSPEVLREVLGLTEEEIAAGPVTLRLSA [r9_525_JUSTAS]	0.483 ± 0.12 kcal/mol	-0.45 ± 0.35 kcal/mol	0.885 ± 0.042 kcal/mol
SAGVISPTDPTTTTTTEVRESEDGTTTTVSTVTYPGTGSTMTVTTTTTHDPSTGTSTVTSTTTTDPSASAGG [r19_342_JUSTAS]	1.08 ± 0.059 kcal/mol	0.394 ± 0.029 kcal/mol	1.57 ± 0.086 kcal/mol
SAGGSAGGSMFKVIVESEDPEKALEEAKALIEKIEEEGIGEIKKFEFLIVPKDIPEYKKLKEKSAGGSAGGS [r12_551_TrMRF]	-0.0656 ± 0.3 kcal/mol	0.438 ± 0.18 kcal/mol	-0.306 ± 0.45 kcal/mol
SAGGSAGGSKKVKIEINVVVPPGMTPEKAKQMAEEFAREIAEAYGGKDVKVKVRIMYIPPDQFSAGGSAGGS [r12_522_TrROS]	2.08 ± 0.13 kcal/mol	2.19 ± 0.066 kcal/mol	2.04 ± 0.084 kcal/mol
SAGMKPGEKVKVTLTLTETRVEEVDGEKKVEKRTLTIEVTVEVSEEDREKALEEAEELARKLAEEGLIPSAG [r5_532_TrROS_Hall]	1.31 ± 0.28 kcal/mol	1.24 ± 0.07 kcal/mol	1.21 ± 0.15 kcal/mol
SAGGSAGGSAMLVIRVVTEDGEEREIEIPEGEELTLEEILAALRTPDGREVPIERVEIFPASAGGSAGGSAG [r3_465_TrROS_Hall]	1.84 ± 0.11 kcal/mol	1.75 ± 0.029 kcal/mol	2.04 ± 0.046 kcal/mol
SAGGSAPPPNTIPIRVKIEDKNGKWETITFPVKSGDDAKDFLNDNFPNVKVEYDPGAGWVTIEVPKSAGGSA [r15_313_TrROS]	-0.0942 ± 0.44 kcal/mol	0.2 ± 0.094 kcal/mol	-0.868 ± 0.29 kcal/mol
SAGMNTITFEYKTKDHYVKIDVQVYPPNEGYIRISIEIYNKDGEPKKEVKITIPAPPGDPAVRDFLDQFSAG [r5_964_TrROS]	2.73 ± 0.35 kcal/mol	2.74 ± 0.047 kcal/mol	2.77 ± 0.32 kcal/mol
SAGGSIEELAEELARRFAEENGAAEVRVEVEGLPDNTVLVRVYVRGPDGELLGVVDALIPVPEDELSAGGSA [r2_153_TrMRF]	2.05 ± 0.085 kcal/mol	2.09 ± 0.062 kcal/mol	1.94 ± 0.045 kcal/mol
SAGGSASVEIIFDPNKPTVTIYVPGPVDPNEPITLTLPGGPSLTITEIEVEKIGKEYVVKAKVTKLSAGGSA [r15_838_JUSTAS]	1.8 ± 0.051 kcal/mol	2.12 ± 0.03 kcal/mol	1.14 ± 0.04 kcal/mol
SAGGEEEEFEVVAEIEIEVDGKTYTITIVRDKETDEYRVEIRNKETGETKTITVSAEELEELLKALSSAGGS [r8_469_TrROS_Hall]	4.77 ± 0.52 kcal/mol	4.77 ± 0.32 kcal/mol	3.17 ± 0.36 kcal/mol
SMGSTTVTVELEFEVEDPSVFPPDTTVDVPEEVIEKLRAEGYTVTEITTTVEPTPSGRVRVRVTMTVRVDSA [r9_465_JUSTAS]	2.93 ± 0.095 kcal/mol	2.77 ± 0.049 kcal/mol	2.95 ± 0.05 kcal/mol
SMYDIVITVPSPEDVKALEEAFKELGVEEIEVERLPEERYRIVIKTKGSVEEIVEAIRKIAEENGLEIEPSA [r9_1003_TrMRF]	3.75 ± 0.19 kcal/mol	3.89 ± 0.19 kcal/mol	3.36 ± 0.18 kcal/mol
SAGGSAGGSAKTVVINIKDLKLSKDGKLTVEEIKKRIKELLKKKGIKKVTVKTVEELLKALKSAGGSAGGSA [r18_72_TrROS_Hall]	1.26 ± 0.074 kcal/mol	1.41 ± 0.086 kcal/mol	0.898 ± 0.062 kcal/mol
SAGGSAGGSAPDVEVEPFTLPSGEEAVAFRLPDGSRVVLVGDKAVLFYKDGKVEEVPLEEILSAGGSAGGSA [r18_379_TrMRF]	1.76 ± 0.13 kcal/mol	1.78 ± 0.1 kcal/mol	1.46 ± 0.042 kcal/mol
SAGGSAGGSAGGKIENWKITKVETKLHPNGFPYLVIELSNEKKKIRVLIYPNGELKAFEESAGGSAGGSAGG [r7_675_TrMRF]	3.82 ± 0.31 kcal/mol	4.07 ± 0.21 kcal/mol	2.8 ± 0.42 kcal/mol
SAGGSAGGSAGGGSTTTTTETYPENGLIFTTTTTVFDDGSLSVTTTTSPLPLPPSPFIATSAGGSAGGSAGG [r7_103_JUSTAS]	1.05 ± 0.18 kcal/mol	0.394 ± 0.18 kcal/mol	1.29 ± 0.043 kcal/mol
SAGGGNIRPVRIERLPDGSLLIVLVADSPDDAFSDESTLDALPGEEELLEARYDPSTGRVLLVRRFRPSAGG [r13_413_TrMRF]	1.55 ± 0.071 kcal/mol	1.71 ± 0.064 kcal/mol	1.33 ± 0.055 kcal/mol

Reference: the supplement of paper PMC12764529
